Source: the domain aggregation screens of Martell et al. (2025)

assay: soluble fraction after stress (log2 fold change); higher = more stays soluble; pooled small domains, quantitative proteomics; conditions: stress: pH 4
Procedure, shortened: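 How much of each domain stays soluble after acid stress, expressed as a fold change, is used to gauge aggregation propensity. Pooled custom libraries of small domains underwent pH 4 stress before high-throughput quantitative proteomics. A higher log2 value means more of the domain stayed soluble.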

| Sequence | soluble fraction (log2) |
| --- | --- |
| HMGHTVHAVPEAADRQRLDVFVGNLHPTISRAYIQKLSKEDQILVNGKPEKAGFKLRTGHSVSVPDMSE | 0.177 |
| HMKSVTVIFKESGNVVSSKKLSVVATAQYVDKSRITAPAGYRIATTDSKLKISENNTVTVEVK | -0.1 |
| HMYVADVVGMGIKDALYILENQGLRVVFTGKGVVKNQSIAVGEKIIKGEKIVLML | -0.723 |
| HMTAMDTQQKKLIIMYHDIHRLRNVEHFTIQRIADHLLLNFRTVKKFLEMTQEEFDKFSENRW | -0.0481 |
| HMKQESSEDLLNEVIDKVIDSNPDEKNRLLDGELKLVSFFMGQVMKETKGKANPGVINGLIKKKFNI | -0.748 |
| HMHQAVTVTKPARLFTGPDGKGVVRSLDVGMMLYPTGEKQGMMWEVEDELGNKGWVSSTLLELS | 0.197 |
| HMLAVPADFAEKLQSLRSQLASDDLDASDAFGRLQPFIKALYPAQLEALRKAVDDFDFVEATRLIDQLPQ | -0.954 |
| HMLARPTANELVKEMQRRAKEQRTELPPDAARDLLERSGQDQFLLGNEVDKLAALSGYTTITREMVAQAGT | 0.0328 |
| HMGQVSDETGLARVVDALLAAHPDEVAKYRAGKTSLLGWFMGQVMKETRGQANPDLARALVLERLE | -0.269 |
| HMKIETVENPLLERTEISALFDSKSGSLTRKEAIDLISKKARIDSSTVYAIKLSNSSGSTRIIGLFY | 0.00271 |
| HMKNLKPSTEVILKELVKRYPDQTEFRKQQIVDVGQSFGYKGKDYGPIFDADNRVKIGTYDLAGLIVPLQR | 0.0835 |
| HMNKNQGVTTTNLNFRKSASTSSLVLYTIPKNTTLDILDKLPSGWYKVKYKGLTGYVSGSYV | 0.22 |
| HMNAMKPVLTVSLGVHTDSLSRRLNEEGIIYRWQQAASEQLLLVDSESSSERIAELIHDWRLEQSSS | -0.051 |
| HMKSFDERQAALNELAKVIEGTGRKAEQDAEFRREQNQLMIDKIDEQLKGDLTDSQREELKKERAALARK | 0.0649 |
| HMAPTGTDRQTPHTRDELYLVLSGTGTFVNGDARHPFGPGDALFVPAGAEHRFEDFSDDFRTWVVFYGAEG | -0.734 |
| HMNIWNEWAFKKWIESDEYTGPDMTDFGHRTLVDEEFSKQYKEQMSLFKERVLTDDEFSAKYGDL | -2.07 |

| Sequence | soluble fraction (log2) |
| --- | --- |
| HMVLVKFEWTPPDARILVDDHPVEARDKEMELPEGTHHVQALAPRGSGYESTVTDIEVRQGMDPVRIAL | 0.115 |
| HMDTLKDFISGVSIVFENKYSVGDNVTIGDFRGDVIELGMKTTKIRAYTGEVLIIPNHLVEKVINH | -0.665 |
| HMLAMHVVESVGGAEQFTKLQNFAKTQNADYQKMWNDTMNSGNVLAIKTMLSGIQSDMIAVQ | -0.466 |
| HMHPRDREENKYLLLRGERIYEESIGEKRLYVEAALHKYEKALSSYDTGLIDEAKEEFKKFLEEIEEA | -0.438 |
| HMNYYDLLGIPKSATKQQIRKAYRTKAKEFHPDVNGPFNSHMHFLLLKQAYETLMDANMRHVYDMALIS | 0.215 |
| HMGIQYVASGHYARMETDAQGVSRLFPPESGAPDESDRLAALSPEVLTRLILPLGDFAPEDVEEMAVD | -0.294 |
| HMKMLPAEVLTHPAVVALIERGAPTGSITPEEVRQASEDAAVEPRHLKALLAHLSALGISVQIP | -0.266 |
| HMGNGDTNERIATLMQILAKQESIINQYGLENPVVSPQMYVRTLKKVVELSGFKDASSYFADIPDGWKA | 0.0699 |
| HMIENMQEYVRHIRAAVSDRLDLTREVEDDEIREVISQIVAEESRQNYLSLGERQTVIETVFNSMR | -2.17 |
| HMSTTYAPYLLGETEQEAIRMARNAGLDPQVVRQSDKSEAGTVILQSHDFGFAMKRGAVILITVSSGPLQ | -0.0322 |
| HMTLHDLFPQAVEFVSEKEMISTAELQRKLMISYNSAAKIIDQLLHVDFIQKSESAGKYSVLIK | -0.486 |
| HMNQWQLLSEDGAILGTRVLYHPHETEQPFTRSLSGVKIPAHVQSVTIRAGDLVHGFGGREIQMQLPPIV | 0.0124 |
| HMDMNVQNYRGLSLDRAKKLISDLGLKYEVVGTGDSVVKQVPSSGSRMSKENGRIILYTENVEDA | 0.278 |
| HMKVNMIIVMKPGARETDIQEVSNVLKSAGLGVHISKGTERTIIGVIGDKRLLNGIPLDLMHGVDKLVPIM | -0.0619 |
| HMETKIKFQIQTLDELNIRKVADWDAKAITTVKKGQILDVVDTVAAKNGSTPMYRLESGLYITASPKYVKK | 0.22 |
